Where two headings read alike, the source gives them in different places.
Experiments:
[1] = target: T1, Myristoyl-CoA:protein N-myristoyltransferase from Saccharomyces cerevisiae (Saccharomyces cerevisiae, UniProt P14743); settings: cited from earlier work; for Km: octapeptide substrate
T1 sequence (P14743 1-455): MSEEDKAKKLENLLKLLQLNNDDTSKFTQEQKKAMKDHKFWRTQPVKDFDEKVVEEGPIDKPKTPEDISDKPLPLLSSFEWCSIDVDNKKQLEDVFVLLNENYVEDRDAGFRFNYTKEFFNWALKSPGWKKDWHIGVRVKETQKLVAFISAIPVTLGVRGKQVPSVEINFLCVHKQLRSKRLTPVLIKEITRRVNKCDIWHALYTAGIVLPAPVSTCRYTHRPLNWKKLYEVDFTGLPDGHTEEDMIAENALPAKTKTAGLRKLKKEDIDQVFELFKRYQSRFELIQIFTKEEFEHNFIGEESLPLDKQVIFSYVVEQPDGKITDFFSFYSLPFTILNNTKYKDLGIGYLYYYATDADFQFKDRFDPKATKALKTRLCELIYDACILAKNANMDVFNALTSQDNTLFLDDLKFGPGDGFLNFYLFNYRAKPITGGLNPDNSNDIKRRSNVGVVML

[2] = target: T1, Myristoyl-CoA:protein N-myristoyltransferase from Saccharomyces cerevisiae; assay: kinetic measurements of substrate specificity of yeast NMT with octapeptides; type: biochemical; settings: ratio of the Km, Rocque et al. 1993 data
From the text: The enzyme Myristoyl-CoA:protein N-myristoyltransferase from Saccharomyces cerevisiae has been subject to extensive kinetic measurements to examine its substrate specificity (Towler, D. A., et al., Annu. Rev. Biochem. 57:69-99 (1988)). […] However, the relation of the affinities, certifying which substrates are binding better than others, should remain constant.

[3] = earlier publication, Towler et al. 1988

Sequence	Km ([1]; Rocque et al. 1993)	Km [1, 3]	higher affinity (lower Km) than GSSKSKPK [2]	ability to become myristoylated ([1]; mutation of octapeptide GNAAAARR to GPAAAARR, Towler et al. 1988)
GNAAAARR [octapeptide substrate of yeast NMT, derived from cAMP-dependent protein kinase]	31 µM	60 µM	3 fold	
GPAAAARR [octapeptide, mutation of […] with proline on position 2]				loss of the ability to become myristoylated
GSSKSKPK [octapeptide substrate of yeast NMT]	105 µM	40 µM		
